The values below come from paper PMC12717009.

The target in experiment [1] is Nup116FG (amino acids 1–725), hydrogel particles (S. cerevisiae) (UniProt Q02630). Briefly: FG-hydrogel permeation assay (confocal fluorescence); preformed NupFG hydrogel particles (3.3 µM total NupFG, 5% FMAL-labelled, TBS); Kap95–AF568 in 150 mM NaCl, 100 mM Tris pH 8 added.
Experiment [2] deals with NPCs isolated from an Mlp1ppxPrA pNup84–mCherry strain expressing Kap95–GFP (S. cerevisiae (endogenous) | S. cerevisiae) (UniProt Q02455). Briefly: immunofluorescence of isolated NPCs on coverglass (confocal); isolated NPCs kept in PBS at 4 °C for 0, 24, 48 and 72 h, put on poly-L-lysine coverglass; anti-eGFP–AF647 signal at spots co-localized with anti-mCherry–AF568; single-exponential fit of the loss.

Experiment [3] has as its target isolated native yeast (wild type) nuclear pore complex (S. cerevisiae (endogenous)) (UniProt Q02455). The experiment in a line: affinity purification with mass spectrometry; whole NPCs captured through Mlp1-ppx-PrA from cryogenically lysed yeast (20 mM HEPES–KOH pH 7.4, 50 mM potassium acetate, 20 mM NaCl, 2 mM MgCl2, Triton X-100, Tween-20), native elution by protease cleavage; label-free quantitation; +CP (after isolation) compared with −CP (72 h in buffer) NPCs.

Consider “Kap95 labelled with Alexa Fluor 568 C5 maleimide (from UniProt Q06142 1-861) (natural protein)”, for which the concentration of Kap95–AF568 in Nup116FG particles in experiment [1] stood at 1.58 µM. On to “Kap95–GFP expressed under its native promoter (from UniProt Q06142 1-861) (natural protein)”, for which the half-life of dissociation (t1/2) in experiment [2] worked out at 20.1 h.

“endogenous Kap95 (from UniProt Q06142 1-861) (natural protein)”: in experiment [3], the stoichiometry N (Kap95 molecules per NPC) fell in the range of 15 to 20.
